Experiment [1] has as its target human BTLA, endogenous protein of peripheral blood B and T cells of healthy donors (human, UniProt Q7Z6A9 31-289). Kind of experiment: cell-based or functional assay.
Experiment [2] addresses T1, cynomolgus BTLA expressed on CHO cells (cynomolgus, UniProt A0A2K5W7M7 31-289).
T1 construct: whole, on cells; also called cyno BTLA; CHO cells expressing cynomolgus BTLA
T1 sequence: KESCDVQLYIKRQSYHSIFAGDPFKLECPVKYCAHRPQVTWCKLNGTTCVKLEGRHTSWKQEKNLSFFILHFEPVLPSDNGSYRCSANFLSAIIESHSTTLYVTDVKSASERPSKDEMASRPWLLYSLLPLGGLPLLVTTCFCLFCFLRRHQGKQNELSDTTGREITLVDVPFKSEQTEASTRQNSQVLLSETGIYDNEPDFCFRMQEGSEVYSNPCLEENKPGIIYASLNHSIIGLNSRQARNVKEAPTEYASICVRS
Kind of experiment: flow cytometry on CHO cells expressing cynomolgus BTLA, PE-anti-huFc detection. (In flow cytometry, cells or beads pass a laser one at a time.)

For experiment [3], the target named is T2, human BTLA (analyte of the BIAcore measurements) (human, UniProt Q7Z6A9 31-156, limits assumed).
T2 sequence: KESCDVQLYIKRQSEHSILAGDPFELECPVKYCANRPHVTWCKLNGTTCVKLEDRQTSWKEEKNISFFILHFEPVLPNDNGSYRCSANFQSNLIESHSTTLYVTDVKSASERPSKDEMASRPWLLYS
As to the kind of experiment: BIAcore.

Experiment [4] concerns the target T2, human BTLA (analyte of the BIAcore …). As to the kind of experiment: BIAcore surface plasmon resonance.
Experiment [5] shares this target. As to the kind of experiment: BIAcore, antibody captured on an anti-CH1 chip. The text has this:
For BIAcore, the test antibodies were captured on an anti-CH1 chip.

B1: hu Mab8D5 Fab' fragment (Fab, V domains shown)
VH: EVQLVESGGGLVQPGGSLRLSCAASGFTISSYDMHWVRQATGKGLEWVSVIGPAGDTYYPGSVKGRFTISRENAKNSLYLQMNSLRAGDTAVYYCAREGMAAHNYYGMDVWGQGTTVTVSS
VL: not shown
As to B1, the “relative potency of the Fab′ against the full Mab” value in experiment [1] was approximately 10 fold less.

B2: hu Mab8D5 G1 (IgG1 version of 8D5) (antibody, V domains shown)
VH: B1 VH
VL: not shown
notes: same variable regions as hu Mab8D5; also called IgG1 version of hu Mab8D5; 8D5 IgG1 Mab
For B2, the EC50 (as a rule, the concentration that produces a half-maximal response) in experiment [2] was approximately 12 nM.

B3: hu Mab8D5 (IgG4 version of 8D5, fully human monoclonal agonist anti-BTLA antibody) (antibody, V domains shown)
VH: B1 VH
VL: not shown
notes: Rest: human IgG4/kappa; Re-expressed in CHO-S cells; also called hu Mab8D5 G4; 8D5 (G4) agonist
In the case of B3, in experiment [3], the koff – broadly, a measure of how fast the partners let go of each other – came to 0.000137 s⁻¹ and the kon (usually the rate constant with which the complex forms) was 45800 M⁻¹ s⁻¹. Moreover, the Kd (commonly the constant that tells how readily two partners part at equilibrium) in experiment [4] was approximately 2 nM. Further, in experiment [5], the koff was 0.00019 s⁻¹ and the kon worked out at 79000 M⁻¹ s⁻¹. In experiment [2], this molecule returned an EC50 of approximately 12 nM.

These data come from US20160222114A1 (published 2016).
